The record followed here is patent US20090081211A1 (Genentech, published 2009).

The target of this assay is T1, human complement C3 (human, UniProt P01024 23-1663).
T1 construct: also called native C3; pro-molecule C3
Kind of assay: ELISA on purified C3b or C3 (FIG. 8). The method, then:
In another experiment, purified C3b or C3 were captured in microtiter plates using a polyclonal C3 antibody. Binding of S77 (A) or a polyclonal anti C3 antibody (B) to captured C3b or C3 was determined using a secondary HRPO-conjugated antibody. Color was developed with TMB (KPL), stopped in 2N H₂SO₄ and absorbance read at 450 nm.
C3b ELISA for testing specificity of anti C3b antibody S77. Twenty-five μL of capture antibody (YW144.2.45.S77 Affinity Matured xC3/C3b (Genentech) 2 μg/ml) diluted in PBS was added to wells of a microtitre plate and incubated overnight at 4° C. The plate was washed 3× with wash buffer (PBS/0.05% Tween 20 (20× stock; Media Prep; Cat. A3355)). Fifty μL of block buffer was added to the wells and the plate incubated for 1-3 hours with gentle agitation (room temperature) and washed 3× with wash buffer. […] OD reading of plate was taken (450/630 nm). […]
(ELISA stands for enzyme-linked immunosorbent assay.)

T1 sequence (P01024 other isoform, or with tags, fused parts or gaps limits assumed): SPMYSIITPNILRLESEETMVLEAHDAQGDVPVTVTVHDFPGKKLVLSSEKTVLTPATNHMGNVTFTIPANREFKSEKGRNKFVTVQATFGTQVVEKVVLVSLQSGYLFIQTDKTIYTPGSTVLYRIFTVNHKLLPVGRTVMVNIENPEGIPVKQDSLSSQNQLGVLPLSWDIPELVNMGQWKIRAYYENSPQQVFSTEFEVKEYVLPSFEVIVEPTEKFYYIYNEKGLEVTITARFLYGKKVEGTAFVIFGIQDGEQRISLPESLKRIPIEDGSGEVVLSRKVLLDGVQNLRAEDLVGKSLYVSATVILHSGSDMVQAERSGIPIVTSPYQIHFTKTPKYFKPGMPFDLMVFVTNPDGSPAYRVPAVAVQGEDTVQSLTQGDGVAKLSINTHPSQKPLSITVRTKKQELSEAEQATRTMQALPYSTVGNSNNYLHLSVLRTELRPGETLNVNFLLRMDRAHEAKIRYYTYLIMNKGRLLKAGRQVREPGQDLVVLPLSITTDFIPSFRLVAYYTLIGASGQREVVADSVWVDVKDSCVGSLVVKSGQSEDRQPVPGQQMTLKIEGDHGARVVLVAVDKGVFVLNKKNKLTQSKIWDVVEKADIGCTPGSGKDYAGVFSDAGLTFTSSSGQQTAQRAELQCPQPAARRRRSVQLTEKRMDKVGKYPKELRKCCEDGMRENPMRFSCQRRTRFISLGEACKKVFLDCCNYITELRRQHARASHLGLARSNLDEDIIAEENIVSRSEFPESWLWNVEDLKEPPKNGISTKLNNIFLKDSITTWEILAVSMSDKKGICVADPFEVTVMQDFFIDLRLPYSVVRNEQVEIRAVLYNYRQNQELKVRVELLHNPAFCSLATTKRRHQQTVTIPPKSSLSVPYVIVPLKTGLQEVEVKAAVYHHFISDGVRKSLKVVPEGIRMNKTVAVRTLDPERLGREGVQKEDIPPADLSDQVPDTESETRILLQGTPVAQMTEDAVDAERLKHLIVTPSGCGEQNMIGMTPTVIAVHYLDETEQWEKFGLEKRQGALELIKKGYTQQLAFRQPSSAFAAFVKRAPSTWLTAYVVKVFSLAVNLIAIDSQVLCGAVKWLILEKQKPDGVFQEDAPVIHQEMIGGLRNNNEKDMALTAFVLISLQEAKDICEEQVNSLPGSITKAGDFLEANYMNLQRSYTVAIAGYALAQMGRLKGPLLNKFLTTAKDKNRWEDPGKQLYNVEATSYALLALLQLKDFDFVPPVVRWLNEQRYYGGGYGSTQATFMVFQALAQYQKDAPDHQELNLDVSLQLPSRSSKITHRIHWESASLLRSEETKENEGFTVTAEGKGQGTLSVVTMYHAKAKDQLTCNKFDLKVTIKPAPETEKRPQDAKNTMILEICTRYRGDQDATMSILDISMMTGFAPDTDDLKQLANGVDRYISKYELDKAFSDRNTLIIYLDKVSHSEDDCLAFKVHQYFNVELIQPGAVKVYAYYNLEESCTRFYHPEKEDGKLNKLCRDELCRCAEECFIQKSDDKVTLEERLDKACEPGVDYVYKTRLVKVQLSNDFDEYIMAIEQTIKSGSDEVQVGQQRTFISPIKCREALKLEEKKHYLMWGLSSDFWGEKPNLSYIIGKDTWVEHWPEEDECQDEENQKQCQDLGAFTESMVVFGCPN

B1: antibody S77 (YW144.2.43.S77), format in the assay not stated (antibody, V domains shown)
VH: EVQLVESGGGLVQPGGSLRLSCAASGFSFTSSSVSWVRQAPGKGLEWVGLIYPYNGFNYYADSVKGRFTISADTSKNTAYLQMNSLRAEDTAVYYCARNALYGSGGYYAMDYWGQGTLVTVSS
VL: DIQMTQSPSSLSASVGDRVTITCRASQDVSTAVAWYQQKPGKAPKLLIYSASFLYSGVPSRFSGSGSGTDFTLTISSLQPEDFATYYCQQSYATLPTFEQGTKVEIK
notes: also called anti C3b antibody S77
B1: the binding result is on record as “no binding”.
